Experimental data taken from patent US12565517B2, “Cyclic peptide having CTLA-4 inhibitory activity and use thereof” (GeneFrontier Corporation, priority 2019, dated 2026).
Where a SMILES comes first, the peptide text is derived from it. Bridges are numbered along the chain shown (N, C = ends). Where no end group is shown, it is not given here. The star is where a group is joined. Biotin = O=C1N[C@H]2[C@H](CS[C@H]2CCCCC(=O)*)N1; PEG4 = NCCOCCOCCOCCOCCC(=O)O

molecular target: T1, CTLA-4 (Homo sapiens, UniProt P16410); test: ELISA binding of clones after Affinity Maturation with random library (Tables 10, 11); settings: CTLA-4 binding ELISA of clones after Affinity Maturation from random (NNS) library; signal/noise ratio; clones of 4th or 5th round
T1 sequence (P16410 36-223): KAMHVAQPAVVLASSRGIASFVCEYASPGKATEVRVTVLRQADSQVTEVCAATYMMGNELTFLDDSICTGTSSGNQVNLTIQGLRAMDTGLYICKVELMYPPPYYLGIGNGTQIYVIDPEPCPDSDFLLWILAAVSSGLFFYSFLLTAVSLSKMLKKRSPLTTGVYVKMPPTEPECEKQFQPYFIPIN
Procedure: (§1) After each round of Affinity Maturation, the cyclic peptide genes were recovered and subcloned into pET-Mal vector (FIG. 2) in the same manner as described above to perform base sequence analysis. For the 94 single colonies analyzed for sequence, E. coli transformants were inoculated into 100 μL of 2×YT medium containing ampicillin (final concentration 50 μg/mL), incubated at 37° C. for 3-5 hours (OD600=0.5-0.8), then added with IPTG (final concentration 0.5 mM) and incubated at 25° C. overnight. 10 μL of E. coli cultured medium was added with 90 μL of PBS and 40 μL of lysis reagent (20 μL BugBuster Protein Extraction Reagent (Novagen), 20 μL Lysozyme solution 2.5 mg/mL) to lyse E. coli cells for 1 hour at room temperature. The cell lysate was added with 40 μL of 12.5% skim milk solution (TBST) and blocked for 1 hour at room temperature. In parallel, antigen protein was immobilized overnight at 4° C. in 384-well plates at 100 ng/20 μL per well, and each well was washed twice with 100 μL/well of TBST, added with 100 μL/well of 5% skim milk solution (TBST) for blocking for 1 hour at room temperature, and washed twice with 100 μL/well of TBST to obtain antigen-immobilized plates. 20 μL/well of blocking-treated E. coli extract was added to the antigen-immobilized plates and gently stirred at room temperature using a plate mixer. After 1 hour, the plates were washed 5 times with 100 μL/well of TBST, 20 μL/well of anti-FLAG M2-HRP conjugate (1:2000 dilution, Sigma) was added and gently stirred on a plate mixer for 1 hour at room temperature. The plates were washed 5 times with 100 μL/well of TBST, and binding of cyclic peptides to the antigen was detected by 20 μL/well of chromogenic substrate (0.4 mg/mL 3,3′,5,5′-Tetramethyl-benzidine, 0.01% hydrogen peroxide). After 15 minutes of reaction at room temperature, the reaction was stopped with 20 μL/well of 2N HCl, and absorbance at 450 nm was measured using a plate reader (infinite F200: TECAN) (Table 5).
Oligo DNAs of a library were synthesized (see below), in which amino acid residues (positions 1, 4, 8, 10, +1 and +2) (corresponding to X1, […], X8, X10, X+1 and X+2) other than those essential or advantageous for CTLA-4 binding (2H, 3P, 5L, 6P, 7I, 9S, 11H, 12F) identified by alanine scanning were randomized (NNS).
Affinity Maturation was performed in the same manner as described above. The amount of biotinylated CTLA-4 immobilized on the magnetic beads was 10 pmol in the 1st round, 2 pmol in the 2nd round, and 1 pmol in the 3nd-5th rounds, respectively. The washing period was 2 hours for the 1st round, 19 hours for the 2nd round, 67 hours for the 3nd round, 140 hours for the 4th round, and 340 hours for the 5th round. Washing frequency was 1 time (2 hours) in the 1st round, 2 times (every 10 hours) in the 2nd round, 6 times (every 10 hours) in the 3rd round, 14 times (every 10 hours) in the 4th round, and 36 times (every 10 hours) in the 5th round.

Compound	ELISA S/N(SA)
C4m#19-5th4w-NN6-52 (GGCLHPFLPIRSVHFCGC; C4m#19-5th4w-NN6-52)	28.6
C4m#19-5th4w-NN6-64 (GGCWHPVLPIRSVHFCCR; C4m#19-5th4w-NN6-64)	13.7
C4m#19-5th2w-NNS6-90 (GGCRHPFLPIVSFHFCPF; C4m#19-5th2w-NNS6-90)	19.7
C4m#19-5th4w-NN6-81 (GGCFHPYLPIRSWHFCSR; C4m#19-5th4w-NN6-81)	32.3
C4m#19-5th2w-NNS6-34 (GGCCHPFLPIYSVHFCAS; C4m#19-5th2w-NNS6-34)	5.0
C4m#19-5th4w-NN6-79 (GGCWHPVLPIRSCHFCAV; C4m#19-5th4w-NN6-79)	24.9
C4m#19-5th4w-NN6-82 (GGCFHPFLPIRSLHFCCR; C4m#19-5th4w-NN6-82)	28.3
C4m#19-5th4w-NN6-20 (GGCSHPQLPILSDHFCSA; C4m#19-5th4w-NN6-20)	30.6
C4m#19-5th4w-NN6-23 (GGCRHPHLPIWSWHFCGR; C4m#19-5th4w-NN6-23)	30.2
C4m#19-5th2w-NNS6-14 (GGCWHPFLPIRSYHFCPW; C4m#19-5th2w-NNS6-14)	34.7
C4m#19-5th4w-NN6-56 (GGCWHPFLPIQSLHFCGV; C4m#19-5th4w-NN6-56)	27.1
C4m3127-4th-NNS6-20 (GGCLHPFLPILSLHFCPF; C4m3127-4th-NNS6-20) [Clone C4m3127-4th-NNS6-20]	4.4
C4m#19-5th2w-NNS6-86 (GGCFHPYLPIWSLHFCRS; C4m#19-5th2w-NNS6-86)	7.7
C4m#19-5th4w-NN6-65 (GGCWHPFLPILSLHFCSR; C4m#19-5th4w-NN6-65)	12.5
C4m#19-5th4w-NN6-37 (GGCLHPFLPISSWHFCGR; C4m#19-5th4w-NN6-37)	22.7
C4m#19-5th4w-NN6-75 (GGCWHPFLPIKSVHFCCA; C4m#19-5th4w-NN6-75)	5.6
C4m#19-5th2w-NNS6-12 (GGCWHPYLPIRSVHFCGR; C4m#19-5th2w-NNS6-12)	20.4
C4m#19-5th4w-NN6-44 (GGCRHPFLPIVSWHFCGR; C4m#19-5th4w-NN6-44)	30.1
C4m3127-4th-NNS6-3 (GGCSHPFLPIWSVHFCGQ; C4m3127-4th-NNS6-3) [Clone C4m3127-4th-NNS6-3]	10.9
C4m#19-5th4w-NN6-83 (GGCLHPLLPILSVHFCPS; C4m#19-5th4w-NN6-83)	12.0
C4m#19-5th2w-NNS6-66 (GGCRHPFLPIFSVHFCPF; C4m#19-5th2w-NNS6-66)	4.4
C4m#19-5th2w-NNS6-94 (GGCFHPYLPISSVHFCGR; C4m#19-5th2w-NNS6-94)	22.4
C4m#19-5th4w-NN6-38 (GGCSHPFLPIFSLHFCPV; C4m#19-5th4w-NN6-38)	16.6
C4m#19-5th4w-NN6-24 (GGCWHPWLPIYSHHFCPI; C4m#19-5th4w-NN6-24)	27.6
C4m#19-5th2w-NNS6-8 (GGCRHPFLPIFSLHFCAR; C4m#19-5th2w-NNS6-8)	16.5

same assay, conditions: S/N ratio of CTLA-4 binding in ELISA; clones from 4th or 5th round of Affinity Maturation from random (NNS) library

Compound	ELISA S/N(SA)
C4m3127-4th-NNS6-95 (GGCWHPVLPIRSGHFCSR; C4m3127-4th-NNS6-95) [Clone C4m3127-4th-NNS6-95]	3.4

molecular target: T1, CTLA-4; test: Affinity measurement of CTLA-4 binding clones after Affinity Maturation (EC50 by ELISA, Table 6); settings: EC50 by ELISA, MBP fusion cyclic peptides
Procedure: For each of the CTLA-4 binding clones obtained by Affinity Maturation, purified N-terminal MBP fusion protein solution (400 μg/mL) was prepared and samples serially 2-fold diluted with PBS were prepared. CTLA-4 was immobilized overnight at 4° C. in 384-well plates at 100 ng/20 μL per well, and each well was washed twice with 100 μL/well of TBST, added with 100 μL/well of 5% skim milk solution (TBST) for blocking for 1 hour at room temperature, and washed twice with 100 μL/well of TBST to obtain antigen-immobilized plates. 20 μL/well of serially-diluted N-terminal MBP fusion protein solution was added to the antigen-immobilized plates and gently stirred at room temperature using a plate mixer. After 1 hour, the plates were washed 5 times with 100 μL/well of TBST, 20 μL/well of anti-FLAG M2-HRP conjugate (1:2000 dilution, Sigma) was added and gently stirred on a plate mixer for 1 hour at room temperature. Further, the plates were washed 5 times with 100 μL/well of TBST, and binding of N-terminal MBP fusion proteins to the antigen was detected by 20 μL/well of chromogenic substrate (0.4 mg/mL 3,3′,5,5′-Tetramethyl-benzidine, 0.01% hydrogen peroxide). After 15 minutes of reaction at room temperature, the reaction was stopped with 20 μL/well of 2N HCl, and absorbance at 450 nm was measured using a plate reader (infinite F200: TECAN). The graph was plotted with the vertical axis as the absorbance of ELISA and the horizontal axis as the concentration of N-terminal MBP fusion protein of the CTLA4-binding clones (FIG. 5), and the EC50 was calculated from the obtained binding curve (Table 6).

Compound	CTLA-4 affinity improved over the original clone
CLHPFLPIVSHHFCGR (cysteine pairing not given here; also: MBP fusion) [#10]	about 50 fold

same assay, conditions: N-terminal MBP fusion protein of the CTLA-4 binding clone; EC50 calculated from ELISA binding curve

Compound	EC50
CLHPFLPIVSHHFCGR (cysteine pairing not given here; also: MBP fusion) [#10]	82 nM

molecular target: SA (Streptomyces avidinii, UniProt P22629); test: ELISA background signal of MBP-fused cyclic peptides on SA wells (Table 5); format: binding; settings: MBP-fused cyclic peptide
Procedure: as §1
An Error-Prone Library was prepared based on H12SSI-Ctla4-3-02, and Affinity Maturation selection experiments were performed. […]

Chain of SA (P22629 25-183): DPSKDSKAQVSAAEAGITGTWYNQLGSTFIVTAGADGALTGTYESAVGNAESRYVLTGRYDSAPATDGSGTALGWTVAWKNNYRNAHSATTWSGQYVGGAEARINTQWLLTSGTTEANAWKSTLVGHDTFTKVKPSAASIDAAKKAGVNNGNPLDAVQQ

Compound	ELISA MBP-fusion SA (absorbance at 450 nm)
CLHPFLPIVSHHFCGR (cysteine pairing not given here; also: MBP fusion) [#10]	0.0617

molecular target: T2, CTLA-4 (Homo sapiens, UniProt P16410); test: Evaluation of binding after Affinity Maturation selection by ELISA (S/N ratio, Table 5); settings: MBP-fused cyclic peptide; Orencia wells; absorbance at 450 nm
T2 construct: IgG1 Fc (own knowledge: Orencia = abatacept, CTLA4-Ig)
Procedure: The basic operation of ribosome display was performed in the same manner as described above. Detailed experimental conditions for Affinity Maturation are indicated below. 2 μL of Nanolink streptavidin magnetic beads (SoluLink) were used as magnetic beads to immobilize the antigen, and 1 mL of CTLA-4 protein solution (1 μM) was used as a wash solution. The amount of biotinylated CTLA-4 immobilized on the magnetic beads was 10 pmol in the 1st round, 2 pmol in the 2nd round, and 1 pmol in the 3rd round, respectively. The washing period was 2 hours for the 1st round, 19 hours for the 2nd round, and 67 hours for the 3rd round. The number of wash cycle was one time (2 hours) in the 1st round, two times (about every 10 hours) in the […], and six times (about every 10 hours) in the 3rd round. After each round of RT-PCR, Error-Prone PCR was performed in the same manner as described above.
T2 sequence (P16410 with tags, fused parts or gaps limits assumed): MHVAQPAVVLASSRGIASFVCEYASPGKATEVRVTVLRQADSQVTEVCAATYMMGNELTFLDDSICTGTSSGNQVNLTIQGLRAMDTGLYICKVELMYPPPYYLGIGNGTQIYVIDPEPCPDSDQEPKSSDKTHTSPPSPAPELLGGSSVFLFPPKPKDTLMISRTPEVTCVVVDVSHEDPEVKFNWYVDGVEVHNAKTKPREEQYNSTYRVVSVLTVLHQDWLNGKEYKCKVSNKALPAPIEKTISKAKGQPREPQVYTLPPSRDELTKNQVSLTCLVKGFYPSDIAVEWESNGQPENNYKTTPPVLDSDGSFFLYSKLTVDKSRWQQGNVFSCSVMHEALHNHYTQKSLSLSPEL
as §1

Compound	ELISA MBP-fusion Orencia (absorbance at 450 nm)
CLHPFLPIVSHHFCGR (cysteine pairing not given here; also: MBP fusion) [#10]	1.1444

same assay, conditions: ratio of Orencia signal to SA signal; binding = S/N not less than 2

Compound	ELISA MBP-fusion S/N(SA)
CLHPFLPIVSHHFCGR (cysteine pairing not given here; also: MBP fusion) [#10]	18.5

molecular target: T1, CTLA-4; test: Affinity measurement of synthetic biotinylated peptides by BLItz system (peptide on SA sensor chip); format: binding; settings: read-out: ka
Procedure: Affinity for CTLA-4 was measured using the BLItz system (forte Bio). All operations were performed according to the instruction manual of the BLItz system. The biotinylated peptides were immobilized on the SA sensor chip via streptavidin.

Compound	kon
CSCC[C@@H]1NC(=O)[C@@H](NC(=O)[C@H](CCCCN)NC(=O)CCOCCOCCOCCOCCNC(=O)CCCC[C@@H]2SC[C@@H]3NC(=O)N[C@@H]32)CSSC[C@@H](C(=O)O)NC(=O)[C@H](Cc2ccccc2)NC(=O)[C@H](Cc2c[nH]cn2)NC(=O)[C@H](Cc2c[nH]cn2)NC(=O)[C@H](CO)NC(=O)[C@H](C(C)C)NC(=O)[C@H](C(C)C)NC(=O)[C@H](CC(C)C)NC(=O)[C@H](CC(C)C)NC(=O)[C@H](Cc2ccccc2)NC(=O)[C@@H]2CCCN2C(=O)[C@H](Cc2c[nH]cn2)NC1=O [biotinylated H12SSI-Ctla4-3-02] ({Biotin-PEG4}-KCMHPFLLVVSHHFC-OH; disulfide 2-15; C-terminus assumed)	115000 M⁻¹ s⁻¹

same assay, conditions: synthetic Biotin-PEG4-Lys peptide immobilized; BLItz

Compound	kd
CSCC[C@@H]1NC(=O)[C@@H](NC(=O)[C@H](CCCCN)NC(=O)CCOCCOCCOCCOCCNC(=O)CCCC[C@@H]2SC[C@@H]3NC(=O)N[C@@H]32)CSSC[C@@H](C(=O)O)NC(=O)[C@H](Cc2ccccc2)NC(=O)[C@H](Cc2c[nH]cn2)NC(=O)[C@H](Cc2c[nH]cn2)NC(=O)[C@H](CO)NC(=O)[C@H](C(C)C)NC(=O)[C@H](C(C)C)NC(=O)[C@H](CC(C)C)NC(=O)[C@H](CC(C)C)NC(=O)[C@H](Cc2ccccc2)NC(=O)[C@@H]2CCCN2C(=O)[C@H](Cc2c[nH]cn2)NC1=O [biotinylated H12SSI-Ctla4-3-02] ({Biotin-PEG4}-KCMHPFLLVVSHHFC-OH; disulfide 2-15; C-terminus assumed)	0.022 s⁻¹
